Assay results as given in patent US20260209345A1 (IOMX THERAPEUTICS, published 2026).
Where a chain is given by its changes, count along the chain named. Each block holds one molecule with its values, some of them ahead of it.

Assays:
recombinant LILRB1 ECD [1] = target: T1, recombinant LILRB1 ECD (human, UniProt Q8NHL6 24-461); assay: BLI, IgG on AHC sensor, ECD in solution
T1 construct: also called biotinylated LILRB1 ECD
Procedure: (§1) Briefly, IgGs were captured on anti-human capture (AHC) biosensors (Sartorius). […] Subsequently, the sensors were dipped into 1× Kinetics Buffer to measure the dissociation over 420 s. All sensorgrams were double referenced against 1× Kinetics Buffer and unloaded […] sensors to subtract sensor drifts and potential reference binding of the analytes. The affinities were determined by applying a 1:1 binding model.

recombinant LILRA1 ECD = target: T2, recombinant LILRA1 ECD (human, UniProt O75019 17-461); assay: BLI, IgG on AHC sensor, ECD in solution
T2 construct: whole canonical entry named; also called LILA1
T2 sequence (O75019 17-461 limits assumed): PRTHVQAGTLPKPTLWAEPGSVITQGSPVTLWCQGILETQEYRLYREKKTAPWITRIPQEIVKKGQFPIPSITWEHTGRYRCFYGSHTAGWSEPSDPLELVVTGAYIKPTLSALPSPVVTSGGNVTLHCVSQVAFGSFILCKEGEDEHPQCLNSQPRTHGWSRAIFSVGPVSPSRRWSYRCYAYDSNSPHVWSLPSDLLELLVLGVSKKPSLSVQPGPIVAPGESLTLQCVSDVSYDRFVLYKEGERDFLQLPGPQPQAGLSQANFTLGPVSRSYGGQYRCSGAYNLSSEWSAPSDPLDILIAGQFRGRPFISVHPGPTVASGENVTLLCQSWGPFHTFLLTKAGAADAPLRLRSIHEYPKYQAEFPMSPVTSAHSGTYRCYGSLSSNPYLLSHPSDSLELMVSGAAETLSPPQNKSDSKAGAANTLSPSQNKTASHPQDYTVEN
Procedure: as §1

recombinant LILRA3 = target: T3, recombinant LILRA3 (human, UniProt Q8N6C8 24-439); assay: BLI, IgG on AHC sensor, ECD in solution
T3 construct: whole entry named; also called LILRA3 ECD; LILA3
T3 sequence (Q8N6C8 24-439 limits assumed): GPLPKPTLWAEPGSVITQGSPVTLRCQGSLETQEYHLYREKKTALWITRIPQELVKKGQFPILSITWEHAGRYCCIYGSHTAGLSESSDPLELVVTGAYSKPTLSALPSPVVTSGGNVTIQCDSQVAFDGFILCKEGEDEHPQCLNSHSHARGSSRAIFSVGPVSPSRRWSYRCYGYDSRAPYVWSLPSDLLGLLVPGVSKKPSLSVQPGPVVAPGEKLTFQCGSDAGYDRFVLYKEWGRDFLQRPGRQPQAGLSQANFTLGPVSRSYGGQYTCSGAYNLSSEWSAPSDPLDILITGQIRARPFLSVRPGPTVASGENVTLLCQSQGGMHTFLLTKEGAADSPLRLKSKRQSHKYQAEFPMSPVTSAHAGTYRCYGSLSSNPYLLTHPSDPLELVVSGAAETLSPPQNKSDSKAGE
Procedure: as §1

recombinant LILRB1 ECD [2] = target: T1, recombinant LILRB1 ECD; assay: ELISA, LILRB1 ECD binding to HLA-G-Fc
Procedure: (§2) HLA-G inhibition was tested by ELISA. 384-well Maxisorp plates were coated with 2 ug/mL B2M-HLA-G fused to a mouse IgG2a-Fc and the plates were blocked with 2% (w/v) BSA in PBST. […] 15 ul of the antibody dilution series (300 nM to 0.3 nM) were mixed with 30 μL of the pre-mixed LILRB/Avidin-HRP solution (final antibody concentration 100 nM to 0.1 nM) and incubated for 1 h at room temperature. After three wash cycles with PBST, 20 μL of the antibody/LILRB/Avidin-HRP solution was transferred to the plate with immobilized HLA-G and incubated for 15 min at room temperature. After three wash cycles with PBST, residual LILRB binding to HLA-G was detected by developing the ELISA with TMB substrate.

recombinant LILRB2 ECD [3] = target: T4, recombinant LILRB2 ECD (human, UniProt Q8N423 22-460); assay: BLI, IgG on AHC sensor, ECD in solution
T4 construct: also called biotinylated LILRB2 ECD
T4 sequence (Q8N423 22-460 limits assumed): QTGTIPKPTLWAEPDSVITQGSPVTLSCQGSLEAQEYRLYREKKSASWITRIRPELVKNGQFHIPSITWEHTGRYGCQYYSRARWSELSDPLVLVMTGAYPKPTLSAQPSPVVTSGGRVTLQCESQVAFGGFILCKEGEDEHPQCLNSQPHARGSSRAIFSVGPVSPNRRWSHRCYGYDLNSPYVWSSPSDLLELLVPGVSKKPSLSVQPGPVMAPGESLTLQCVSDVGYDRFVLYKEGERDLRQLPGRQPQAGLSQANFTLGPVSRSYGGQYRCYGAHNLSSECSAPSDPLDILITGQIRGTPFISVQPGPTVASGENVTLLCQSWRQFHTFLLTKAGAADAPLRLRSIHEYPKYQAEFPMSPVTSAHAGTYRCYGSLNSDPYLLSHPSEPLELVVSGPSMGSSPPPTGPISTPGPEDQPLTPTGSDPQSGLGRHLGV
Procedure: as §1

recombinant LILRB2 ECD [4] = target: T4, recombinant LILRB2 ECD; assay: ELISA, LILRB2 ECD binding to HLA-G-Fc
Procedure: as §2

T1 sequence (Q8NHL6 24-461 limits assumed): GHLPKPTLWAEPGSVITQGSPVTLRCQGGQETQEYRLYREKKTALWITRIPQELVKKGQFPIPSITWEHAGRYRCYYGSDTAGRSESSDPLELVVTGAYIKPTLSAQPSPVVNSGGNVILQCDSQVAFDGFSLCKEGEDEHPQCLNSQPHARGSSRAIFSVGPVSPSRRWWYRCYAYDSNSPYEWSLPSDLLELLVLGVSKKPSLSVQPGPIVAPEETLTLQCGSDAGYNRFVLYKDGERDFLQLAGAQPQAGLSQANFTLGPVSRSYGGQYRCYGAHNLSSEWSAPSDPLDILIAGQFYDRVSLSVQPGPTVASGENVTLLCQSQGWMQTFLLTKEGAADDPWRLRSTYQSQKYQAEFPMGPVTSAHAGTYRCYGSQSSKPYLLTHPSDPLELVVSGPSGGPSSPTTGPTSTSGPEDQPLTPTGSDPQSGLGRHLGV

B1: A-022 (antibody, V domains shown)
VH: QVQLVQSGAEVKKPGSSVKVSCKASGGTFGGSAISWVRQAPGQGLEWMGGIVLAYSTSVYAQKFQGRVTITADESTSTAYMELSSLRSEDTAVYYCAKGPPVGSSSWYTDWYFDLWGRGTLVTVSS
VL: SYELTQPPSVSVSPGQTASITCSGDKLGDKYASWYQQKPGQSPVLVIYQDSKRPSGIPERFSGSNSGNTATLTISGTQAEDEADYYCLSYGAHSHGVVFGGGTKLTVL
notes: tested as IgG
- Kd (recombinant LILRB1 ECD [1]): 5.2 nM
- Kd (recombinant LILRA3): 317 nM
- Kd (recombinant LILRB2 ECD [3]): 4.4 nM
- IC50 (recombinant LILRB2 ECD [4]): 3.1 nM
- IC50 (recombinant LILRB1 ECD [2]): 3.9 nM

B3: A-001 (antibody, V domains shown)
VH: QVQLVQSGAEVKKPGSSVKVSCKASGGTFSSYAISWVRQAPGQGLEWMGGIIPIFGTANYAQKFQGRVTITADESTSTAYMELSSLRSEDTAVYYCAKDLGTYSSGWPYYYGMDVWGQGTTVTVSS
VL: SYELTQPPSVSVSPGQTASITCSGDKLGDKYASWYQQKPGQSPVLVIYQDSKRPSGIPERFSGSNSGNTATLTISGTQAEDEADYYCQSTTHTSFVFGGGTKLTVL
notes: tested as IgG; also called parental antibody A-001
- Kd (recombinant LILRB1 ECD [1]): 157 nM
- Kd (recombinant LILRA1 ECD): 1820 nM
- Kd (recombinant LILRA3): 576 nM
- Kd (recombinant LILRB2 ECD [3]): 36.4 nM
- IC50 (recombinant LILRB2 ECD [4]): 3.1 nM
- IC50 (recombinant LILRB1 ECD [2]): 5.1 nM

B4: A-015 (antibody, V domains shown)
VH: B3 VH with T28S, S30Q, S35N, I54G, G56S
VL: B3 VL
notes: tested as IgG
- Kd (recombinant LILRB1 ECD [1]): 5 nM
- Kd (recombinant LILRA1 ECD): 868 nM
- Kd (recombinant LILRA3): 202 nM
- Kd (recombinant LILRB2 ECD [3]): 3.5 nM
- IC50 (recombinant LILRB2 ECD [4]): 3.2 nM
- IC50 (recombinant LILRB1 ECD [2]): 4.4 nM

B6: A-008 (antibody, V domains shown)
VH: B3 VH with S30A, S31E, Y32S, S35L, I52V, I54S, G56Y, T57S
VL: B3 VL
notes: tested as IgG
- Kd (recombinant LILRB1 ECD [1]): 7.4 nM
- Kd (recombinant LILRA1 ECD): 1520 nM
- Kd (recombinant LILRA3): 355 nM
- Kd (recombinant LILRB2 ECD [3]): 8.8 nM
- IC50 (recombinant LILRB2 ECD [4]): 4 nM
- IC50 (recombinant LILRB1 ECD [2]): 4.1 nM

B7: A-005 (antibody, V domains shown)
VH: B3 VH with S30T, S31I, S35N, I54G, G56H, T57S
VL: B3 VL
notes: tested as IgG
- Kd (recombinant LILRB1 ECD [1]): 1 nM
- Kd (recombinant LILRA1 ECD): 407 nM
- Kd (recombinant LILRA3): 161 nM
- Kd (recombinant LILRB2 ECD [3]): 3.3 nM
- IC50 (recombinant LILRB2 ECD [4]): 4.3 nM
- IC50 (recombinant LILRB1 ECD [2]): 5 nM

B8: A-010 (antibody, V domains shown)
VH: B3 VH with S30Q, Y32Q, I34F, S35A, G50S, I54G, G56S
VL: B3 VL
- Kd (recombinant LILRB1 ECD [1]): 4.5 nM
- Kd (recombinant LILRA1 ECD): 760 nM
- Kd (recombinant LILRA3): 217 nM
- Kd (recombinant LILRB2 ECD [3]): 3.3 nM
- IC50 (recombinant LILRB2 ECD [4]): 3.7 nM
- IC50 (recombinant LILRB1 ECD [2]): 4.1 nM

B9: A-017 (antibody, V domains shown)
VH: B3 VH with I54Y, G56S, T57L, Q62P
VL: B3 VL
notes: tested as IgG
- Kd (recombinant LILRB1 ECD [1]): 2.3 nM
- Kd (recombinant LILRA1 ECD): 591 nM
- Kd (recombinant LILRA3): 223 nM
- Kd (recombinant LILRB2 ECD [3]): 1.7 nM
- IC50 (recombinant LILRB2 ECD [4]): 4.4 nM
- IC50 (recombinant LILRB1 ECD [2]): 4.5 nM

Continued, values first:

- Kd (recombinant LILRB1 ECD [1]): 6.9 nM
- Kd (recombinant LILRA1 ECD): 15.1 nM
- Kd (recombinant LILRA3): 39.4 nM
- IC50 (recombinant LILRB1 ECD [2]): 1.8 nM
Molecule: Ref051 [BND-22, LILRB1 specific] (antibody)

- Kd (recombinant LILRB1 ECD [1]): 16 nM
- Kd (recombinant LILRA1 ECD): 1270 nM
- Kd (recombinant LILRB2 ECD [3]): 2 nM
- IC50 (recombinant LILRB2 ECD [4]): 3.5 nM
- IC50 (recombinant LILRB1 ECD [2]): 3.8 nM
B2: A-037 (antibody, V domains shown)
VH: QVQLVQSGAEVKKPGSSVKVSCKASGGTFSSYAISWVRQAPGQGLEWMGGIIPIFGTANYAQKFQGRVTITADESTSTAYMELSSLRSEDTAVYYCARVHLYYHFPASYFDYWGQGTLVTVSS
VL: B1 VL with S89A, Y90S, G91L, A92G, H93T, S94G, H95G, G96V, V97Y
notes: tested as IgG

- Kd (recombinant LILRB1 ECD [1]): 35.8 nM
- Kd (recombinant LILRA1 ECD): 42900 nM
- Kd (recombinant LILRB2 ECD [3]): 18.6 nM
- IC50 (recombinant LILRB2 ECD [4]): 2.7 nM
- IC50 (recombinant LILRB1 ECD [2]): 1.2 nM
B5: A-036 (antibody, V domains shown)
VH: B3 VH
VL: B3 VL with S89L, T91H, H92L, S94I, F95Y
notes: tested as IgG

- Kd (recombinant LILRB1 ECD [1]): 12.6 nM
- binding result (recombinant LILRA1 ECD): no binding (tested: 900 nM)
- Kd (recombinant LILRB2 ECD [3]): 9.4 nM
- IC50 (recombinant LILRB2 ECD [4]): 3.7 nM
- IC50 (recombinant LILRB1 ECD [2]): 2 nM
B10: A-046 (antibody, V domains shown)
VH: B3 VH with T28S, S30Q, S35N, I54G, G56S
VL: B3 VL with S89L, T91H, H92L, S94I, F95Y
notes: tested as IgG
